Measured values taken from patent US20080292620A1.

Target: T1, human prolactin receptor (PRLR), full length on cells (human) (UniProt P16471)
T1 sequence: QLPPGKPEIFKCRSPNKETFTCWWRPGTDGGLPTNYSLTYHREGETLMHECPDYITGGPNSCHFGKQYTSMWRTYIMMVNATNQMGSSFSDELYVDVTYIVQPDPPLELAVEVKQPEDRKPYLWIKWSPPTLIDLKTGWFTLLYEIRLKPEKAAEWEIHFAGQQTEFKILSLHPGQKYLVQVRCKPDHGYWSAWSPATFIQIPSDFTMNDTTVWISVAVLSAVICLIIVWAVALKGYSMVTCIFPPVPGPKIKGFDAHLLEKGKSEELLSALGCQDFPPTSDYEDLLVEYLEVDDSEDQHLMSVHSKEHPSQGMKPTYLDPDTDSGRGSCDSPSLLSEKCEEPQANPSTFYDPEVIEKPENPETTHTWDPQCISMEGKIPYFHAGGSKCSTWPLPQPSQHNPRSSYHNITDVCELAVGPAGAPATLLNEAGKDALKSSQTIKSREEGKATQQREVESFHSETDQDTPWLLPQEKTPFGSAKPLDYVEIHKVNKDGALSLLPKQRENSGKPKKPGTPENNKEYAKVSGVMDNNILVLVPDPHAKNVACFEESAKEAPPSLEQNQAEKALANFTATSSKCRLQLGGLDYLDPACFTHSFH
Experiment: flow cytometry on CHO-K1 cells expressing human PRLR (clone 1G5)

MFI: 33.8
Substance: mAb 1167, control murine anti-PRLR monoclonal antibody (R&D Systems, catalog #MAB1167)
